Values joined by “and” are separate entries in the source; they are usually repeats but may differ in a detail not shown here. Equal entries are not always repeated.

One may read the stoichiometry N as a count of units in the complex or per binding partner.

Series [1] concerns the target Photosystem II (monomer, core complex) (Prochlorococcus marinus MIT9313 (endogenous in thylakoid membranes)) (UniProt Q7V6I0). Kind of series: native gel or EMSA.
The target of series [2] is Photosystem I (monomer) (Prochlorococcus marinus MIT9313 (endogenous in thylakoid membranes)) (UniProt Q7V510). Nature of the series: sucrose gradient centrifugation.
Series [3] has the same target. Nature of the series: native gel or EMSA. On the technique in general: Mobility shift assays separate free from complexed probe on a gel.
In series [4] the target is Photosystem II (monomer, core complex) (Prochlorococcus marinus MIT9313 (endogenous in thylakoid membranes)) (UniProt Q7V6I0). Kind of series: native gel or EMSA. This is another data set of the same source.
Sequence of Photosystem II (monomer, core complex) (Prochlorococcus marinus MIT9313 (endogenous in thylakoid membranes)) (Q7V6I0 whole entry, looked up, one chain of several): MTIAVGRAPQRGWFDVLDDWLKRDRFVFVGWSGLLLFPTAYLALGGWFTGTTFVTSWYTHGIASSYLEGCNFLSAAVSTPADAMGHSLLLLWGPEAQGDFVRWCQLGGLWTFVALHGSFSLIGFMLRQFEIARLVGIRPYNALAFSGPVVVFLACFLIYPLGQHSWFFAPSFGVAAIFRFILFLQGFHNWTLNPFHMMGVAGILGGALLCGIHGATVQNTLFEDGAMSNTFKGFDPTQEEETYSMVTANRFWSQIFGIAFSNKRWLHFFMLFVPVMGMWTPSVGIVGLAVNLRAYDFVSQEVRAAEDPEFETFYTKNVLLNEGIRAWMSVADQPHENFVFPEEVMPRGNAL
The series “native gel or EMSA” concerns the molecule itself. Nature of the series: native gel or EMSA.

“Photosystem II (monomer, core complex) (from UniProt Q7V6I0 1-351; Q7V4Q1 1-49; Q7V4P9 1-65)” showed a stoichiometry N in series [1] of 2. For the molecule “Photosystem I (monomer) (from UniProt Q7V510 1-776; Q7V511 1-749; Q7V8Y4 1-68) (complex)”, the stoichiometry N in series [2] and in series [3] was 3 each time.

B1: light-harvesting antenna protein PcbB (divinyl chlorophyll a/b-binding protein) (natural protein, UniProt Q7V6U4 1-350, looked up)
chain: MQTYGNPNPTYGWWAGNAGTTNRSGKFLAAHIAHTGLMAFWAGSFTLFELSRYDPSVPMGHQPLVALPHLATLGIGVGDGGVITDTYPIVVTAVLHLVLSMVYAAGGLMHSLLFNGDIGEMGVKWARKFDFKWDDPDKLTFILGHHLFLLGLGNVQFVEWAKYYGLYDNAEGVVRTVVPNLNIGMVWNAQFNFLAINSLEDVMGGHAFLALFMMSGGLWHIVTKQAGEYTTFKGKGILSAEAQLSWALAGVGWMALVAAFWCASNTTIYPDTFFGEVLDLKFSISPYWVDTANLPEGTYTSRAWLTNIHYYLGFFYIQGHLWHALRALGFDFKRVSNAIGNADSATITLN
For B1, the stoichiometry N (PcbB per PSII dimer) in series [4] stood at 8. Moreover, in the series “native gel or EMSA”, the “stoichiometry N” value is 2 and 3 and 4.

These data come from publication PMC6312871 (Heliyon, 2018).
